These results are taken from article PMC3787391.

The experiment concerns the target ligated complex of zebrafish PlexinC1_(cyto) and human Rap1B with the 24-residue linker and the LPETGG sortase recognition motif (human | zebrafish) (UniProt P61224). The experiment is described as follows: AUC; sedimentation velocity, with 2 mM AlFx; 0.5, 4, 8 and 20 μM; 10 mM Tris pH 8, 50 mM NaCl, 2 mM TCEP, 2 mM MgCl2; 20°C, 42,000 rpm; c(s) analysis; monomer to dimer.

One may read the stoichiometry N as the number of molecules, sites or subunits per partner or assembly. “ligated complex of zebrafish PlexinC1_(cyto) and human Rap1B with the 24-residue linker and the LPETGG sortase recognition motif (from UniProt P61224 2-166; A0A8M3ARP5 552-1147)” showed a stoichiometry N of 2.
